From publication doi:10.1101/2024.11.16.623920

What was measured:
Experiment in all cases: FRET or BRET
[1] = target: CaGpi2-His6 (C. albicans Gpi2, GPI-GnT subunit, tagged with His6 at the C-terminus) (C. albicans) (UniProt Q5A6L6)
[2] = target: CaGpi3 (C. albicans Gpi3, GPI-GnT subunit) (C. albicans (endogenous in BWP17-derived cells))
[3] = target: CaGpi8 (C. albicans Gpi8, subunit of the GPI-transamidase) (C. albicans (endogenous in the cells))

For “CaRas1 (C. albicans Ras1) (natural protein)”, which spatial distance r (AP-FRET) [1] is on record?
The spatial distance r (AP-FRET) was 5.3 nm.

B1: CaArv1-V5 (C. albicans Arv1 tagged with V5 at its C-terminus) (natural protein)
chain: MICIECGYSNIDCLYSKYKSDYIKLSVCPECNKIADKYIEYDSVILFLDILLLKRQAYKHLAYNLTEMEMEIGSSTNFHINDNTNFKFFHTYRKLMKLIFMILSFEVYLTWANEEKLLIHSQLINLIFNQSVVYQYLFFIIKSSLENLILNLSLQLILRLGYKWGQGPQKINGNIRDKELFGYKTSVLLVTTMVSGSIRLFPILMFIWPYDNISITKPLINLIAFINIVEALRVVTSLGYVELILSLAFSIVIRNIVSKSLLVLIVRLFLDFNFTEVYYNEMYQLYSQIQTYIRWI
What does the source list for B1?
spatial distance r (AP-FRET) [2]: 6.3 nm; spatial distance r (AP-FRET) [3]: > 10 nm
